Laboratory results taken from patent publication US12662541B2, “Antibody-drug conjugates against the receptor tyrosine kinase EphA5” (Rutgers, The State University of New Jersey, priority 2021, dated 2026).

Legend:
[1] = target: T1, EphA5 antigen (Homo sapiens, UniProt P54756); test: ka (1/Ms)
T1 construct: purchased R and D systems 3036-A5
Experimental: (§1) Table printed on a drawing sheet, FIG. 19
(§2) Head of the field: ka (1/Ms)
(§3) The patent's description of the figure: FIG. 19 is a table illustrating the Multi-cycle kinetic parameters of chimeric (VH0/VK0) and humanized variants (tested as purified proteins) binding to EphA5 antigen as determined using the Biacore T200. The relative KD was calculated by dividing the KD of the humanized variant by that of the VH0VK0 (first row) assayed in the same experiment. […]
(§4) Where the first naming reader finds the target: description_of_the_figure: humanized variants (tested as purified proteins) binding to EphA5 antigen as determined using the Biacore T200

[2] = target: T1, EphA5 antigen; test: kd (1/s)
Experimental: as §1
(§5) Head of the field: kd (1/s)
as §3, §4

[3] = target: T1, EphA5 antigen; test: KD (M)
Experimental: as §1
(§6) Head of the field: KD (M)
as §3, §4

[4] = target: T2, rhEphA5 antigen (Homo sapiens, UniProt P54756); test: KD (M)
T2 construct: purchased R and D systems 3036-A5
Experimental: (§7) Table printed on a drawing sheet, FIG. 13
as §6
(§8) The patent's description of the figure: FIG. 13 is a table illustrating the single cycle kinetic parameters of chimeric (VH0/VK0) and humanized 11C12 variants (tested as cell culture supernatants) binding to rhEphA5 antigen as determined using the Biacore T200. The relative KD was calculated by dividing the KD of the humanized variant by that of the VH0/VK0 (top row) assayed in the same experiment. The variants marked with ‘*’ have KD values that are within two-fold of, or are better than, the chimeric antibody. The chimeric and selected variants marked in ‘#’ were identified as the main leads for purification. […]
(§9) Where the first naming reader finds the target: description_of_the_figure: humanized 11C12 variants (tested as cell culture supernatants) binding to rhEphA5 antigen as determined using the Biacore T200

[5] = target: T2, rhEphA5 antigen; test: kd (1/s)
Experimental: as §7, §5, §8, §9

[6] = Thermal ramp stability (UNcle biostability platform, Sypro Orange and SLS); format: physicochemical
From the text: Thermal ramp stability experiments (Tm and Tagg) are well established methods for ranking proteins and formulations for stability. A protein's denaturation profile provides information about its thermal stability and represents a structural ‘fingerprint’ for assessing structural and formulation buffer modifications. A widely used measure of the thermal structural stability of a protein is the temperature at which it unfolds from the native state to a denatured state. For many proteins, this unfolding process occurs over a narrow temperature range and the mid-point of this transition is termed ‘melting temperature’ or ‘Tm’. To determine the melting temperature of a protein, UNcle measures the fluorescence of Sypro Orange (which binds to exposed hydrophobic regions of proteins) as the protein undergoes conformational changes.
Samples for each variant were formulated in PBS and Sypro Orange at a final concentration of 1 mg/mL. […] Samples were subjected to a thermal ramp from 25-95° C., with a ramp rate of 0.3° C./minute and excitation at 473 nm. Full emission spectra were collected from 250-720 nm, and the area under the curve between 510-680 nm was used to calculate the inflection points of the transition curves (Tonset and Tm). Monitoring of static light scattering (SLS) at 473 nm allowed the detection of protein aggregation, and Tagg (onset of aggregation) was calculated from the resulting SLS profiles. Thermal stability values determined lie in a broad range from 57.9 to 69.6° C. (Tm1), 55.1 to 65.2° C. (Tonset) and 65.6 to 70.2° C. (Tagg) with the humanized leads generally showing improved profiles when compared to the chimeric antibody. […] All humanized antibodies appear to have a higher Tm1, Tonset and Tagg compared to the chimeric antibody.

[7] = target: T2, rhEphA5 antigen; test: ka (1/Ms)
Experimental: as §7, §2, §8, §9

[8] = target: T2, rhEphA5 antigen; test: Multi-cycle kinetic analysis (Biacore T200) of purified antibodies; format: binding
Experimental: In order to assess the binding of the six lead humanized variants to rhEphA5 antigen, multi-cycle kinetic analysis (FIG. 68) was performed on purified material. Kinetic experiments were performed at 25° C. on a Biacore T200 running Biacore T200 Control software V2.0.1 and Evaluation software V3.0 (GE Healthcare, Uppsala, Sweden).
HBS-P+ (GE Healthcare, Uppsala, Sweden), supplemented with 1% BSA w/v (Sigma, Dorset, UK) was used as running buffer as well as for ligand and analyte dilutions. Purified lead antibodies were diluted to 0.5 μg/mL in running buffer and at the start of each cycle, loaded onto Fc2, Fc3 and Fc4 of an anti-human IgG CMS sensor chip (GE Healthcare, Little Chalfont, UK). Antibodies were captured at a flow rate of 10 μl/min to give an immobilization level (RL) of 50 RU. The surface was then allowed to stabilize.
Multi-cycle kinetic data was obtained using recombinant EphA5 as the analytes injected at a flow rate of 30 μl/min to minimize any potential mass transfer effects. A five point, three-fold dilution range from 1.11 nM to 270 nM of EphA5 was prepared in running buffer. For each concentration, the association phases were monitored for 210 seconds and the dissociation phase was measured for 900 seconds. Regeneration of the sensor chip surface was conducted between cycles using two injections of 3 M MgCl2. […]
Target sequence in this assay (P54756 25-573 limits assumed): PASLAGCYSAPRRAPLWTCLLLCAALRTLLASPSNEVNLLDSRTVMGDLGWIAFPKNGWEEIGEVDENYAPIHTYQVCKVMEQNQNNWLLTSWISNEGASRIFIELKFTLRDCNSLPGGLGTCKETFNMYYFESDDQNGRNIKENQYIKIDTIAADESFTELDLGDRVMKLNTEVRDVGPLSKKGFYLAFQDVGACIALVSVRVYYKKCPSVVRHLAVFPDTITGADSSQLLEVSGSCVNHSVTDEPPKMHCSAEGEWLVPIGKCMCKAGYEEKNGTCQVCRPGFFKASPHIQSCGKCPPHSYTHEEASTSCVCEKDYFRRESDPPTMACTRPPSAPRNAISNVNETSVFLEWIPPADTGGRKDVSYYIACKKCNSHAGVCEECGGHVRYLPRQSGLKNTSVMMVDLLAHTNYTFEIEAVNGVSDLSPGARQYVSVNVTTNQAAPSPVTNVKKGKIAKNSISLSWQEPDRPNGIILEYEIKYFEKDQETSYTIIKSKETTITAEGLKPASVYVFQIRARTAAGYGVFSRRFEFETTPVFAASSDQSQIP

[9] = tested on: H226 cells (EphA5−); test: Flow cytometry cell binding, H226 negative control cells; format: cell-based, human; settings: from 10 μg/ml, three-fold three point dilution
Experimental: (§10) A H460 cell line stably expressing EphA5 (provided by Rutgers) was used, alongside H226 cells as a negative control, to test for antibody binding in a flow cytometry assay. The cell lines were first assessed for target expression using 10 μg/ml of the murine 11C12 provided by Rutgers) and MolgG1 non-binging control (Biolegend, California, US). Goat anti-mouse Alexa Fluor 647 (Thermo Fisher, Loughborough, UK) was used for antibody detection.
(§11) For cell binding assays, both cell lines were resuspended in FACS buffer (PBS+1% BSA+0.1% sodium azide) and seeded in 96 well U bottom plates at 1×105 (100 μl) cells per well. The chimeric and six purified humanized variants were tested in the assay alongside the 11C12 murine positive control, MolgG1 and HulgG1 non-binding controls. Samples were prepared at a starting concentration of 10 μg/ml in FACS buffer and underwent a four-fold seven point serial dilution for testing with H460 cells and a three-fold three point serial dilution for the H226 cells. […] Median fluorescence intensity (MFI) was measured using an Attune N×T Flow Cytometer (Thermo Fisher, Loughborough, UK) and 10,000 gated events were acquired per sample. For data analysis, live cell populations were gated based on the forward and side scatter dot plot allowing the Alexa Fluor 647 MFI values to be measured in the RL1 channel.

[10] = target: T3, H460 cell line stably expressing EphA5 (Homo sapiens, UniProt P54756); test: Flow cytometry cell binding, H460 cells; format: cell-based; settings: from 10 μg/ml, four-fold seven point dilution
T3 construct: endogenous in cells; host or cells: H460 human lung carcinoma cells (provided by Rutgers)
Experimental: as §10, §11

T3 sequence (P54756 25-1037): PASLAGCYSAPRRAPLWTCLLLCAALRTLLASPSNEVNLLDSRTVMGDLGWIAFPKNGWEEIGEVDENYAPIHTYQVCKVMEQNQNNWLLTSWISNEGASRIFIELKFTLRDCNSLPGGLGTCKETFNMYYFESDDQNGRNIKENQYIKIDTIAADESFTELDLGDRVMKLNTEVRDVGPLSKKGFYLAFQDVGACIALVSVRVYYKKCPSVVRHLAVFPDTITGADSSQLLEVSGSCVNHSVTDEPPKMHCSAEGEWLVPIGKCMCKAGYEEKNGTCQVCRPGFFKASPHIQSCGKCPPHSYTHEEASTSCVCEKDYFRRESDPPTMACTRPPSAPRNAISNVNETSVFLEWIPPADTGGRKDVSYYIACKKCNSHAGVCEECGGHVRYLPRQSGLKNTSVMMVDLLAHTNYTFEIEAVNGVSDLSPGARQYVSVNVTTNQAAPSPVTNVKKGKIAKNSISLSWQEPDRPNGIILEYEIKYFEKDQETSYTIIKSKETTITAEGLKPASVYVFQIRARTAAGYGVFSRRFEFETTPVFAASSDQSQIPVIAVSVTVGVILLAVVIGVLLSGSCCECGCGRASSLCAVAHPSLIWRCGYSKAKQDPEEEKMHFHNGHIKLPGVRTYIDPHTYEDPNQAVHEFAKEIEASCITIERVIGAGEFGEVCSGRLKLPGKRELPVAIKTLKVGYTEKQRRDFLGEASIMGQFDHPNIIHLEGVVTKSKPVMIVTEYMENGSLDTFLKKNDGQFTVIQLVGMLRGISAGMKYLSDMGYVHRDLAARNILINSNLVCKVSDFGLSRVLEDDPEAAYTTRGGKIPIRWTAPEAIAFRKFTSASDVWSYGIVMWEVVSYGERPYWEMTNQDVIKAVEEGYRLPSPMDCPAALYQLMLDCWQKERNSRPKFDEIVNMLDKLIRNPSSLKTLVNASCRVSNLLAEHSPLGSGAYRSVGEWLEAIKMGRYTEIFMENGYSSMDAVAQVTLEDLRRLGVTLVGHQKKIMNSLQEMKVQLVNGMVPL

B1: VH3/VK4: humanized anti-EphA5 antibody, VH SEQ ID NO:4, VL SEQ ID NO:12; lead variant (antibody, V domains shown)
VH: EVQLVESGGGLVQPGGSLKLSCAASGFTFSTFGIHWVRQAPGKGLEWVAYISGASTTIYYADTVKGRFTISRDNSKNTLYLQMNSLRSEDTAMYYCARYGTSFPYGLDYWGQGTLVTVSS
VL: DIVMTQSPDSLAVSLGERATINCKSSQSVDYDGDSYMNWYQQKPGKAPKLLIYGASNLESGIPDRFSGSGSGTDFTLTISRLEPEDAASYYCQQSNEDPFTFGQGTKLEIK
[1]
  ka: 1.31e+06 M⁻¹ s⁻¹
[2]
  kd: 0.00142 s⁻¹
[3]
  Kd: 1.08 nM
[4]
  Kd: 0.956 nM

B2: VH5/VK4: humanized anti-EphA5 antibody, VH SEQ ID NO:6, VL SEQ ID NO:12; lead variant (antibody, V domains shown)
VH: EVQLVESGGGLVQPGGSLKLSCAASGFTFSTFGIHWVRQAPGKGLEWVAYISGASTTIYYADSVKGRFTISRDNSKNTLYLQMNSLRAEDTAVYYCARYGTSFPYGLDYWGQGTLVTVSS
VL: DIVMTQSPDSLAVSLGERATINCKSSQSVDYDGDSYMNWYQQKPGKAPKLLIYGASNLESGIPDRFSGSGSGTDFTLTISRLEPEDAASYYCQQSNEDPFTFGQGTKLEIK
[1]
  ka: 1.23e+06 M⁻¹ s⁻¹
[2]
  kd: 0.00128 s⁻¹
[5]
  kd: 0.00141 s⁻¹
[6]
  Tagg ranking among the leads (SLS profiles): highest Tagg values
[7]
  ka: 1.35e-06 M⁻¹ s⁻¹

B3: VH0/VK0: chimeric antibody with murine 11C12 variable regions (SEQ ID NO:1, 8) and human IgG1/kappa constant regions (antibody, V domains shown)
VH: EVTLKESGGGLVQPGGSRKLSCAASGFTFSTFGIHWVRQAPEKGLEWVAYISGASTTIYYADTVKGRFTISRDNPKNTLFLQMTSLRSEDTAMYYCARYGTSFPYGLDYWGQGTSVTVSS
VL: DIVMTQSPGSLAVSLGQRATISCKASQSVDYDGDSYMNWYQQKPGQPPKLLIYGASNLESGIPARFSGSGSGTDFTLNIHPVEEEDAASYYCQQSNEDPFTFGSGTKLEIK
modifications: human IgG1/kappa constant regions
[5]
  kd: 0.00153 s⁻¹
[8]; 1:1 model fit
  RMAX: 47.8
[8]; 1:1 model, binding to EphA5
  kd: 0.0015 s⁻¹
[6]
  Average Tm2 (° C.): 65.83 °C
  Average Tonset (° C.): 55.1 °C
  transitions detected in thermal unfolding: two transitions (Tm1 and Tm2)
[6]; 1 mg/mL in PBS, ramp 25-95° C.
  Average Tm1 (° C.): 57.9 °C
[6]; SLS at 473 nm
  Average Tagg 473 (° C.): 65.6 °C
[6]; single replicate
  Tm2 (° C.): 65.83 °C
[7]
  ka: 1.15e-06 M⁻¹ s⁻¹

B4: VH5/VK2: humanized anti-EphA5 antibody, VH SEQ ID NO:6, VL SEQ ID NO:10; lead variant (antibody, V domains shown)
VH: EVQLVESGGGLVQPGGSLKLSCAASGFTFSTFGIHWVRQAPGKGLEWVAYISGASTTIYYADSVKGRFTISRDNSKNTLYLQMNSLRAEDTAVYYCARYGTSFPYGLDYWGQGTLVTVSS
VL: DIVMTQSPDSLAVSLGERATINCKASQSVDYDGDSYMNWYQQKPGKAPKLLIYGASNLESGIPDRFSGSGSGTDFTLTISRLEPEDAASYYCQQSNEDPFTFGQGTKLEIK
[1]
  ka: 1.34e+06 M⁻¹ s⁻¹
[2]
  kd: 0.00125 s⁻¹
[5]
  kd: 0.00123 s⁻¹
[7]
  ka: 1.38e-06 M⁻¹ s⁻¹

B5: 11C12: anti-human EphA5 monoclonal murine antibody, parental and positive control (antibody, V domains shown)
VH: EVTLKESGGGLVQPGGSRKLSCAASGFTFSTFGIHWVRQAPEKGLEWVAYISGASTTIYYADTVKGRFTISRDNPKNTLFLQMTSLRSEDTAMYYCARYGTSFPYGLDYWGQGTSVTVSS
VL: DIVMTQSPGSLAVSLGQRATISCKASQSVDYDGDSYMNWYQQKPGQPPKLLIYGASNLESGIPARFSGSGSGTDFTLNIHPVEEEDAASYYCQQSNEDPFTFGSGTKLEIK
[9]
  binding to H226 (EphA5 negative) cells: no binding
[10]
  binding to H460 (EphA5+) cells, MFI dose response: bound to the positive cell line in a concentration dependent manner
